For this assay, the target named is αv integrins on NIH3T3 cells (αvβ3 and αvβ5) (mouse) (UniProt P43406). Briefly: cell-based or functional assay.
UniProt P43406, sequence (P43406 whole entry): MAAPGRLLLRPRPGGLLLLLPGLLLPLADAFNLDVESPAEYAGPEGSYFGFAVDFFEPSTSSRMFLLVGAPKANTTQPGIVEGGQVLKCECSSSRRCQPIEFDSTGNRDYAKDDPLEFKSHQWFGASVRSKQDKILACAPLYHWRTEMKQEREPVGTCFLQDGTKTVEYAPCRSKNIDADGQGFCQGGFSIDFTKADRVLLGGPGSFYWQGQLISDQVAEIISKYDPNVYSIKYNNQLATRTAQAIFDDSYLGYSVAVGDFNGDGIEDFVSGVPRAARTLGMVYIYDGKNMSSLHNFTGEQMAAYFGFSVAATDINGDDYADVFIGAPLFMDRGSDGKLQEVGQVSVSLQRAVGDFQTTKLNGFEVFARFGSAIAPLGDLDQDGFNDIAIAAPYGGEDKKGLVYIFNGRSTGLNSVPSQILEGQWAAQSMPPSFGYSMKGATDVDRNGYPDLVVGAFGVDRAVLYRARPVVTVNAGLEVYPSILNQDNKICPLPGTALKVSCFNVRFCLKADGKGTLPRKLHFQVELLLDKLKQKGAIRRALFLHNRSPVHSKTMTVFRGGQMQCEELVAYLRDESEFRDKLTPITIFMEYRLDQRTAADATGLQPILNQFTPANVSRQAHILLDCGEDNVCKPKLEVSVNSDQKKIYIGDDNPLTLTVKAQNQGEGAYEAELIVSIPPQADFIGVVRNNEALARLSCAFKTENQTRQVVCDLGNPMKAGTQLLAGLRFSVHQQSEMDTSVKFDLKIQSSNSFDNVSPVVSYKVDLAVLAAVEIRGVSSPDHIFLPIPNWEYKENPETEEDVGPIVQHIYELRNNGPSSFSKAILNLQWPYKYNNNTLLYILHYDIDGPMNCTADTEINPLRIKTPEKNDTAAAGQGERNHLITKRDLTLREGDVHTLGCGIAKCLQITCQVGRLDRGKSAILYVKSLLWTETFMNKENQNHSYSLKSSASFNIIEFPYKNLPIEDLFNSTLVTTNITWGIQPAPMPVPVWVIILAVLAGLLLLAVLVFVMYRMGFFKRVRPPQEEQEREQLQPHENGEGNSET

As to GRGDSP [RGD peptide (GRGDSP)], the reduction of transduction of Ad5luc-L1 in NIH3T3 cells compared to control RGE peptide turned out to be 40 % reduction, the reduction of transduction of Ad5luc-L16 in NIH3T3 cells compared to control RGE peptide worked out at 60 % reduction and the reduction of transduction of Ad5luc-L33 in NIH3T3 cells compared to control RGE peptide stood at 61 % reduction.

These data come from patent US20060281073A1.
